Legend:
[1] = target: T1, RevU (LuxR family transcriptional regulator) (Actinacidiphila reveromycinica, UniProt G1UDV5); test: SPR (Biacore T200, His6-RevU immobilized on NTA chip); supported by BR-1 bead pull-down with free BR-1 competition; type: binding
T1 construct: purified His6-tagged RevU expressed in E. coli from a codon-optimized synthetic gene

[2] = target: T2, RevU (LuxR family regulator), His6-tagged (Streptomyces sp. SN-593 (S. …, UniProt G1UDV5)); test: SPR; compound 3 (tetrahydro BR-1), 125 nM RevU; not enhanced; SPR: 10 mM HEPES pH 7.4, 3 mM EDTA, 150 mM NaCl, 0.05% Tween-20, 25 C, RevU 3.9-250 nM; BLI: 10 mM HEPES pH 7.3, 3 mM EDTA, 150 mM NaCl, 0.05% Tween-20, room temperature; details: protein: recombinant; tags: His6 (pColdI); chain copies: 2; label: 5'-biotin; blunt
T2 sequence: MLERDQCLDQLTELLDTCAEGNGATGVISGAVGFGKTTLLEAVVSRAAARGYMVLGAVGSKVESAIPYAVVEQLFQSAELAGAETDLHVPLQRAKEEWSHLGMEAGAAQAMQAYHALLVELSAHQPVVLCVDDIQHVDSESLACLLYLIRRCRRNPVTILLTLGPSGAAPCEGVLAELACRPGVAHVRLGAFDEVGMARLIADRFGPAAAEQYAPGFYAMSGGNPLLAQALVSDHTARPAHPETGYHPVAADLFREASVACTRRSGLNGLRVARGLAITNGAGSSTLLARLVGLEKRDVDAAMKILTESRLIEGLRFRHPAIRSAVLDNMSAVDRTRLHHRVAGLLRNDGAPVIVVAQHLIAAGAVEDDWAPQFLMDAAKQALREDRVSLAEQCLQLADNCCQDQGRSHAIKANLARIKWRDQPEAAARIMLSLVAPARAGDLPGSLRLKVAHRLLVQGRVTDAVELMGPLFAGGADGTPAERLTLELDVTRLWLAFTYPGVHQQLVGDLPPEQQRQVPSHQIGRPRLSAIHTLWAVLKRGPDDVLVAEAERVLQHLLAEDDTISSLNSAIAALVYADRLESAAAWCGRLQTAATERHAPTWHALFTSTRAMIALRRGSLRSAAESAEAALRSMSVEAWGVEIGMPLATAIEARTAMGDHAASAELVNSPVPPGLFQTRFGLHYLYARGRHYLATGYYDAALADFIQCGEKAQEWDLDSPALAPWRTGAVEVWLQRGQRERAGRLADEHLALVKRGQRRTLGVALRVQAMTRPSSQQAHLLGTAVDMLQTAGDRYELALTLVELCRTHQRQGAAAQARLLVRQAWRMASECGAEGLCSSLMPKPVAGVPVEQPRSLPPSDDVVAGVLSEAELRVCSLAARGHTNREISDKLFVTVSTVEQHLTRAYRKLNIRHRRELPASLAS

[3] = target: T2, RevU (LuxR family regulator), …; test: SPR; no BR-1; SPR: 10 mM HEPES pH 7.4, 3 mM EDTA, 150 mM NaCl, 0.05% Tween-20, 25 C, RevU 3.9-250 nM; BLI: 10 mM HEPES pH 7.3, 3 mM EDTA, 150 mM NaCl, 0.05% Tween-20, room temperature; details: protein: recombinant; tags: His6 (pColdI); chain copies: 2; label: 5'-biotin; blunt

NC(=O)c1cc2c([nH]c3ccccc32)c(-c2ccccc2)n1 [compound 1, BR-1]
Kd [1]: 1.31 µM

B1: Fragment 1-1 (dsDNA)
DNA 1: ACGCCGCAACGACCAACAGAGG
DNA 2: CCTCTGTTGGTCGTTGCGGCGT
binding result [2]: binds

B2: Fragment 4 (dsDNA)
DNA 1: GATTATGCGTCGCATTCGGTGTTTGTGGAGTTGATCGAGGATCGGGTTCT
DNA 2: AGAACCCGATCCTCGATCAACTCCACAAACACCGAATGCGACGCATAATC
binding result [3]: binds

From paper PMC7311520, “β-carboline chemical signals induce reveromycin production through a LuxR family regulator in Streptomyces sp. SN-593” (Scientific Reports, 2020)
